# The supplement of paper PMC9170038
# Test system: MS2 coat protein
# Assay: apparent KD of MS2 coat protein; designed switch direction (-1 OFF switch, 1 ON switch): -1; higher = weaker reporter binding
# Procedure, shortened: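 An oligonucleotide input, 200 uM small-molecule ligand, or no input was present during titration of SNAP-549-labelled MS2 coat protein, which was doubled from 0.7 or 1.5 nM to 3 µM. Designed RNA switches had been transcribed on Illumina chips by stalled E. coli RNA polymerase. Apparent KD per design is the median over clusters of curves fitted to normalised cluster fluorescence.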
# [1] = Eterna round: R95, input ligand: microRNA oligo, concentration not stated
# [2] = input ligand: microRNA oligo, concentration not stated
# [3] = Eterna round: R95, input ligand: FMN 200 uM
# [4] = Eterna round: R95, input ligand: none
Sequence,apparent KD of MS2 coat protein (input ligand: FMN 200 uM),apparent KD of MS2 coat protein (input ligand: none),apparent KD of MS2 coat protein [1],apparent KD of MS2 coat protein [2],apparent KD of MS2 coat protein [3],apparent KD of MS2 coat protein [4]
"ACUUAUUGAGGAUAUACAUAAAUUUACAUGAGGAUCACCCAUGUUCUUCUAUGUAUAUAUGUAGAAGGCAGAAGAU [Mat - Exclusion 5 - JL Mod - D32] (Eterna round: R97, puzzle: Exclusion 5)",29.2 nM,19.3 nM,,,,
CUUGUUUAUGUGAGGAUAUACUGUUAGUAAUGUUUGUAGAAGGUACAUGAGGAUCACCCAUGUUUAUUUAUAUU [JR_BME4_Sub043] (puzzle: Brourd's mod of Exclusion 4),,,18.1 nM,,,
"AACACACAUGAGGAUCACCCAUGUGAGGAUAUCGUCGAGGUUGUAAUGCCAACCGUGACGAGAAGGCACUUGGG [Exclusion 1 (Mod 3.1 solution 40 by Eternabot)] (Eterna round: R97, puzzle: Exclusion 1)",44.4 nM,282 nM,,,,
"ACAAGUUUUUAGAUUCUUAACAUGAGGAUCACCCAUGUGCUCGUCUUGUUUGUACUAUCACCGAAGGUGAUAGUACA (Eterna round: R97, puzzle: Sensor, turn-off variant 1)",69.9 nM,70 nM,,,,
"AAAAAACAUGAGGAUCACCCAUGUAAGGAUAUCUAAAAUAAAAGAAAAAUAAAGAAAAGGAGAAGGUACAAGGA [JL wbt mod 25] (Eterna round: R96, puzzle: Exclusion 1)",32.5 nM,29.8 nM,,23.4 nM,,
"AGCUAGAUAGGAUAUGCCCGGGAUAACAUGAGGAUCACCCAUGUGGCCGAAUCAAAUCCAGCAGAAGGGUUUGGGA [Mod of ViennaUCT 12 - Jieux - Exclusion 5] (Eterna round: R97, puzzle: Exclusion 5)",30.8 nM,38.7 nM,,,,
"GCAAGAAUAGGAUAUACACCAUGUCAGCUUCUAUACAACGCACAUGAGGAUCACCCAUGUAGAAGGGUUCUCUG [Exclusion-2-#10] (Eterna round: R97, puzzle: Exclusion 2)",358 nM,365 nM,,,,
"AGUCGUAGACAGGAUAUGCGGCUAAUAAAUAAAGCAGAAGGGUCUACUUGAGGAUCACCCAAGUGGGCGGUUAA [jl-ex6-4.19 ViennaUCT mod] (Eterna round: R97, puzzle: Exclusion 6)",104 nM,20.8 nM,,,,
"UGUAAGCUAGGAUAUGCUUUGGGAAAGCAUUCCUUCGAUAAACUUGAGGAUCACCCAAGUAGAAGGAGCUUACU [salish99_ex2_r4_006] (Eterna round: R97, puzzle: Exclusion 2)",17.5 nM,11.5 nM,,,,
"UUAGUAUUGCAAGGAUAUGUUUAUGAUAUUUUUCCUCUUACAUGAGGAUCACCCAUGUUUAACUUACAGAAGGUGCUAUGAUUU [JR_ExcNG2_Sub031] (Eterna round: R96, puzzle: Exclusion NG 2)",,,,342 nM,,
GUAGAGUAAGGAUAUCAUGAAUAGGAUAGAAUGGUUAGAAAUGAGAAGGUACAUGAGGAUCACCCAUGUAAUGU [Excluse me!!!! 12 - Jieux - Exclusion 4] (puzzle: Exclusion 4),,,21.6 nM,,20.5 nM,17.1 nM
"AUAAUGUAAGGAUAUCAGUCGACUAGCUUCGGCUAGUCGACUGAGAAGGUACAUGAGGAUCACCCAUGUGGUUC [E4/11-A1] (Eterna round: R97, puzzle: Exclusion 4)",118 nM,985 nM,,,,
"AUCAGCUCGUGAGGAUAUACAUGCGUGCUUCGGCACGUAUGAUAGAUCACAUGAGGAUCACCCAUGUAGAAGGCACGAGCUGAU [ENG2/4-A3] (Eterna round: R96, puzzle: Exclusion NG 2)",15.1 nM,13.4 nM,,12.1 nM,,
"GCAAAUCAUGUAGGAUAUGCGUGGCGAAGCUAUGCAGAAGGACAUGAGGAUCACCCAUGUGCUUCCGUCUGCGUACAGACGGUA [Mat - Exclusion NG 1 - Mod of JL - D18] (Eterna round: R96, puzzle: Exclusion NG 1)",93.5 nM,91.3 nM,,73.4 nM,,
"AGAUGUAGAUACCGAUCCUACAUGAGGAUCACCCAUGUAGCUAGACGUGCUCGCGUGGCUCGUCAGACUACCAGUAG [salish99_TOv1_r3_091] (puzzle: Sensor v3, turn-off variant 1)",,,211 nM,,243 nM,281 nM
"UUGAUGUCAUCAGGAUAUAGUAUUUAAGACAUAUAUUUUUUCAAACAUGAGGAUCACCCAUGUCGCUAGAAGGGAUUAUAGAUU [JR_ExcNG2_Sub082] (Eterna round: R96, puzzle: Exclusion NG 2)",,,,29.6 nM,,
AAUAAAUAGGAGGAUAUCGUAUCGGAAACGAUACGAGAAGGUCUAACAUGAGGAUCACCCAUGUUCCUCAAUAA [Mat - Exclusion 6 - Eli Mod - D45] (puzzle: Exclusion 6),,,39.4 nM,,,
"AGAAGAAAAGAGAUUUGCUCGUCUUAUAAGUAUGAAGUAACAUGAGGAUCACCCAUGUAAGUCUAGUGAGAAGGAAG [JR_SV3TOV2_Sub001] (puzzle: Sensor v3, turn-off variant 2)",,,50 nM,,22.9 nM,24.4 nM
CAGACACAUGAGGAUCACCCAUGUGAGGAUAUGCGUACGUUGUCCGUAGGCGACGUGCGCAGAAGGCGCAAAGG [JL-ex1-3.10 Eli mod] (puzzle: Exclusion 1),,,67 nM,,65.7 nM,79.4 nM
"UUAAUUAGCUCGCUAGAUCCUCACAUGAGGAUCACCCAUGUGCAGGAUAUCAGCUCGUGUAGAGCUGAGAAGGGCACUGCGAGC [ExNG3/10-A3] (Eterna round: R96, puzzle: Exclusion NG 3)",51.6 nM,108 nM,,88.2 nM,,
"UAGUUAUUCACAGGAUAUCGCCUCUUAUUACAUGAGGAUCACCCAUGUUUAGUUAGUUACAUGUUCGAGAAGGGUGUAGUUGUU [JR_ExcNG2_Sub043] (Eterna round: R96, puzzle: Exclusion NG 2)",,,,290 nM,,
"CGUGUCUGAUAGGAUAUGACUGUUCAUAGAUGGUUAGAAGGAUCGACAUGAGGAUCACCCAUGUAGGGCUAGCG [Eternabot (L1) Solution 65] (Eterna round: R97, puzzle: Exclusion 6)",104 nM,219 nM,,,,
"AACCAGCGAGGAUAUCGUUCGGAUAACAUGAGGAUCACCCAUGUGAGUCGUGUUUACGAACGAGAAGGCGCGACUC [Cequus] (Eterna round: R97, puzzle: Exclusion 5)",218 nM,798 nM,,,,
"GGUUGGCGAGGAUAUACAUGAGGAUCACCCAUGUGGUCCUGUAAAAAAAAAAACCUUUGUAGAAGGCGCGGGUC [salish99_ex3_r4_034] (Eterna round: R97, puzzle: Exclusion 3)",211 nM,233 nM,,,,
"GCAGCAACUCUCACUAACUAAACAUGAGGAUCACCCAUGUCUCAGGAUAUGGUCUGGAUUACAGGCCAGAAGGGAGAAAGCUGC [Eli exng3 - 040] (Eterna round: R96, puzzle: Exclusion NG 3)",9.73 nM,13.1 nM,,10.6 nM,,
